# What was measured:
# [1] = target: human CD147 on the surface of human cell lines (human) (UniProt P35613); experiment: cell-based or functional assay
# [2] = target: human CD147 on the surface of human cell lines (human) (UniProt P35613); experiment: FACS on human KYSE-70 esophageal epithelial cell line, Alexa Fluor 647 goat anti-human IgG detection
binder,measurement,setting,value
"humanized anti-human CD147 monoclonal antibody hu 3A11 Lc1/Hc1 (antibody, V domains shown) VH: EVQLVESGGGLVQPGGSLRLSCAASGFTFSNYWMDWVRQAPGKGLEWVGEIRLKSYNYATHYAASVKGRFTISRDDSKNSVYLQMNSLKTEDTAVYYCTAAGTDYWGQGTLVTVSS VL: DIQMTQSPSSLSASVGDRVTITCRASQSVRTDVGWYQQKPGKAPKLLIYYSSNRYTGVPSRFSGSGSGTDFTLTISSLQPEDFATYYCQQDYSSPYTFGQGTKLEIK","EC50 of cytotoxicity, A253 cells (with vc-MMAE secondary antibody)",[1],< 1 nM
same,"EC50 of cytotoxicity, BHY cells (with vc-MMAE secondary antibody)",[1],< 1 nM
same,"EC50 of cytotoxicity, Detroit562 cells (with vc-MMAE secondary antibody)",[1],0.008 nM
same,"EC50 of cytotoxicity, EFO-21 cells (with vc-MMAE secondary antibody)",[1],1.4 nM
same,"EC50 of cytotoxicity, H69 cells (with vc-MMAE secondary antibody)",[1],1 nM
same,"EC50 of cytotoxicity, H292 cells (with vc-MMAE secondary antibody)",[1],0.07 nM
same,"EC50 of cytotoxicity, H358 cells (with vc-MMAE secondary antibody)",[1],0.09 nM
same,"EC50 of cytotoxicity, H520 cells (with vc-MMAE secondary antibody)",[1],11.2 nM
same,"EC50 of cytotoxicity, H1581 cells (with vc-MMAE secondary antibody)",[1],0.039 nM
same,"EC50 of cytotoxicity, H1975 cells (with vc-MMAE secondary antibody)",[1],0.09 nM
same,"EC50 of cytotoxicity, H2405 cells (with vc-MMAE secondary antibody)",[1],0.3 nM
same,"EC50 of cytotoxicity, H2444 cells (with vc-MMAE secondary antibody)",[1],1.8 nM
same,"EC50 of cytotoxicity, HCC 70 cells (with vc-MMAE secondary antibody)",[1],0.94 nM
same,"EC50 of cytotoxicity, HCC1143 cells (with vc-MMAE secondary antibody)",[1],< 1 nM
same,"EC50 of cytotoxicity, HCC 1806 cells (with vc-MMAE secondary antibody)",[1],0.68 nM
same,"EC50 of cytotoxicity, HCC1937 cells (with vc-MMAE secondary antibody)",[1],< 1 nM
same,"EC50 of cytotoxicity, HCC1954 cells (with vc-MMAE secondary antibody)",[1],< 1 nM
same,"EC50 of cytotoxicity, HCT 116 cells (with vc-MMAE secondary antibody)",[1],1.8 nM
same,"EC50 of cytotoxicity, HPAC cells (with vc-MMAE secondary antibody)",[1],0.21 nM
same,"EC50 of cytotoxicity, HPAF2 cells (with vc-MMAE secondary antibody)",[1],< 1 nM
same,"EC50 of cytotoxicity, KYSE70 cells (with vc-MMAE secondary antibody)",[1],0.13 nM
same,"EC50 of cytotoxicity, KYSE150 cells (with vc-MMAE secondary antibody)",[1],1.6 nM
same,"EC50 of cytotoxicity, LOVO cells (with vc-MMAE secondary antibody)",[1],< 1 nM
same,"EC50 of cytotoxicity, LS174T cells (with vc-MMAE secondary antibody)",[1],1 nM
same,"EC50 of cytotoxicity, LS411N cells (with vc-MMAE secondary antibody)",[1],< 1 nM
same,"EC50 of cytotoxicity, PC3 cells (with vc-MMAE secondary antibody)",[1],< 1 nM
same,"EC50 of cytotoxicity, RT11-2/84 cells (with vc-MMAE secondary antibody)",[1],1.94 nM
same,"EC50 of cytotoxicity, SCC1 cells (with vc-MMAE secondary antibody)",[1],0.14 nM
same,"EC50 of cytotoxicity, SCC9 cells (with vc-MMAE secondary antibody)",[1],0.37 nM
same,"EC50 of cytotoxicity, SCC25 cells (with vc-MMAE secondary antibody)",[1],0.2 nM
same,"EC50 of cytotoxicity, SKOV3 cells (with vc-MMAE secondary antibody)",[1],0.95 nM
same,"EC50 of cytotoxicity, SW1417 cells (with vc-MMAE secondary antibody)",[1],0.8 nM
same,"EC50 of cytotoxicity, aspc1 cells (with vc-MMAE secondary antibody)",[1],20.5 nM
same,"EC50 of cytotoxicity, miapaca1 cells (with vc-MMAE secondary antibody)",[1],0.65 nM
same,"EC50 of cytotoxicity, sw48 cells (with vc-MMAE secondary antibody)",[1],< 1 nM
same,"EC50 of cytotoxicity, sw480 cells (with vc-MMAE secondary antibody)",[1],< 1 nM
same,"EC50 of in vitro cytotoxicity, A253 cells (with vc-MMAE secondary antibody)",[1],< 1 nM
same,"EC50 of in vitro cytotoxicity, AGS cells (with vc-MMAE secondary antibody)",[1],0.09 nM
same,"EC50 of in vitro cytotoxicity, BHY cells (with vc-MMAE secondary antibody)",[1],< 1 nM
same,"EC50 of in vitro cytotoxicity, Detroit562 cells (with vc-MMAE secondary antibody)",[1],0.008 nM
same,"EC50 of in vitro cytotoxicity, EFO-21 cells (with vc-MMAE secondary antibody)",[1],1.4 nM
same,"EC50 of in vitro cytotoxicity, ESO26 cells (with vc-MMAE secondary antibody)",[1],0.06 nM
same,"EC50 of in vitro cytotoxicity, FLO-1 cells (with vc-MMAE secondary antibody)",[1],0.51 nM
same,"EC50 of in vitro cytotoxicity, H69 cells (with vc-MMAE secondary antibody)",[1],1 nM
same,"EC50 of in vitro cytotoxicity, H226 cells (with vc-MMAE secondary antibody)",[1],0.45 nM
same,"EC50 of in vitro cytotoxicity, H292 cells (with vc-MMAE secondary antibody)",[1],0.07 nM
same,"EC50 of in vitro cytotoxicity, H358 cells (with vc-MMAE secondary antibody)",[1],0.09 nM
same,"EC50 of in vitro cytotoxicity, H520 cells (with vc-MMAE secondary antibody)",[1],11.2 nM
same,"EC50 of in vitro cytotoxicity, H1581 cells (with vc-MMAE secondary antibody)",[1],0.039 nM
same,"EC50 of in vitro cytotoxicity, H1975 cells (with vc-MMAE secondary antibody)",[1],0.09 nM
same,"EC50 of in vitro cytotoxicity, H2052 cells (with vc-MMAE secondary antibody)",[1],0.03 nM
same,"EC50 of in vitro cytotoxicity, H2405 cells (with vc-MMAE secondary antibody)",[1],0.3 nM
same,"EC50 of in vitro cytotoxicity, H2444 cells (with vc-MMAE secondary antibody)",[1],1.8 nM
same,"EC50 of in vitro cytotoxicity, H2452 cells (with vc-MMAE secondary antibody)",[1],0.94 nM
same,"EC50 of in vitro cytotoxicity, HCC 70 cells (with vc-MMAE secondary antibody)",[1],0.94 nM
same,"EC50 of in vitro cytotoxicity, HCC1143 cells (with vc-MMAE secondary antibody)",[1],< 1 nM
same,"EC50 of in vitro cytotoxicity, HCC 1806 cells (with vc-MMAE secondary antibody)",[1],0.68 nM
same,"EC50 of in vitro cytotoxicity, HCC1937 cells (with vc-MMAE secondary antibody)",[1],< 1 nM
same,"EC50 of in vitro cytotoxicity, HCC1954 cells (with vc-MMAE secondary antibody)",[1],< 1 nM
same,"EC50 of in vitro cytotoxicity, HCT 116 cells (with vc-MMAE secondary antibody)",[1],1.8 nM
same,"EC50 of in vitro cytotoxicity, HPAC cells (with vc-MMAE secondary antibody)",[1],0.21 nM
same,"EC50 of in vitro cytotoxicity, HPAF2 cells (with vc-MMAE secondary antibody)",[1],< 1 nM
same,"EC50 of in vitro cytotoxicity, HT29 (WIDR) cells (with vc-MMAE secondary antibody)",[1],0.87 nM
same,"EC50 of in vitro cytotoxicity, Hs 746T cells (with vc-MMAE secondary antibody)",[1],0.06 nM
same,"EC50 of in vitro cytotoxicity, KYSE70 cells (with vc-MMAE secondary antibody)",[1],0.13 nM
same,"EC50 of in vitro cytotoxicity, KYSE150 cells (with vc-MMAE secondary antibody)",[1],0.88 nM
same,"EC50 of in vitro cytotoxicity, KYSE410 cells (with vc-MMAE secondary antibody)",[1],1.35 nM
same,"EC50 of in vitro cytotoxicity, LOVO cells (with vc-MMAE secondary antibody)",[1],< 1 nM
same,"EC50 of in vitro cytotoxicity, LS174T cells (with vc-MMAE secondary antibody)",[1],1 nM
same,"EC50 of in vitro cytotoxicity, LS411N cells (with vc-MMAE secondary antibody)",[1],< 1 nM
same,"EC50 of in vitro cytotoxicity, MSTO-211H cells (with vc-MMAE secondary antibody)",[1],0.37 nM
same,"EC50 of in vitro cytotoxicity, OACM5.1 C cells (with vc-MMAE secondary antibody)",[1],1.1 nM
same,"EC50 of in vitro cytotoxicity, OE33 cells (with vc-MMAE secondary antibody)",[1],0.29 nM
same,"EC50 of in vitro cytotoxicity, PC3 cells (with vc-MMAE secondary antibody)",[1],< 1 nM
same,"EC50 of in vitro cytotoxicity, RT11-2/84 cells (with vc-MMAE secondary antibody)",[1],1.94 nM
same,"EC50 of in vitro cytotoxicity, SCC1 cells (with vc-MMAE secondary antibody)",[1],0.14 nM
same,"EC50 of in vitro cytotoxicity, SCC9 cells (with vc-MMAE secondary antibody)",[1],0.37 nM
same,"EC50 of in vitro cytotoxicity, SCC25 cells (with vc-MMAE secondary antibody)",[1],0.2 nM
same,"EC50 of in vitro cytotoxicity, SK-GT-4 cells (with vc-MMAE secondary antibody)",[1],< 0.1 nM
same,"EC50 of in vitro cytotoxicity, SKBR3 cells (with vc-MMAE secondary antibody)",[1],0.38 nM
same,"EC50 of in vitro cytotoxicity, SKOV3 cells (with vc-MMAE secondary antibody)",[1],0.95 nM
same,"EC50 of in vitro cytotoxicity, SNU-1 cells (with vc-MMAE secondary antibody)",[1],0.21 nM
same,"EC50 of in vitro cytotoxicity, SNU-5 cells (with vc-MMAE secondary antibody)",[1],0.11 nM
same,"EC50 of in vitro cytotoxicity, SNU-16 cells (with vc-MMAE secondary antibody)",[1],1.14 nM
same,"EC50 of in vitro cytotoxicity, SW1417 cells (with vc-MMAE secondary antibody)",[1],0.8 nM
same,"EC50 of in vitro cytotoxicity, aspc1 cells (with vc-MMAE secondary antibody)",[1],20.5 nM
same,"EC50 of in vitro cytotoxicity, miapaca1 cells (with vc-MMAE secondary antibody)",[1],0.65 nM
same,"EC50 of in vitro cytotoxicity, sw48 cells (with vc-MMAE secondary antibody)",[1],< 1 nM
same,"EC50 of in vitro cytotoxicity, sw480 cells (with vc-MMAE secondary antibody)",[1],< 1 nM
same,Kd,[2],1.65 nM

# Reference: patent publication US20180303952A1
